Source: PMC6040593 (Molecular cell, 2017)
Changes are numbered by the printed parent chain. Names may count otherwise. One block for each binder: values may come before it.

Experiments:
[1] = biological target: T1, soluble region of S. cerevisiae Msp1 (Δ1-32), wild type (S. cerevisiae), P28737; assay: SEC + SEC-MALS; conditions: remark: other sources report otherwise
T1 chain: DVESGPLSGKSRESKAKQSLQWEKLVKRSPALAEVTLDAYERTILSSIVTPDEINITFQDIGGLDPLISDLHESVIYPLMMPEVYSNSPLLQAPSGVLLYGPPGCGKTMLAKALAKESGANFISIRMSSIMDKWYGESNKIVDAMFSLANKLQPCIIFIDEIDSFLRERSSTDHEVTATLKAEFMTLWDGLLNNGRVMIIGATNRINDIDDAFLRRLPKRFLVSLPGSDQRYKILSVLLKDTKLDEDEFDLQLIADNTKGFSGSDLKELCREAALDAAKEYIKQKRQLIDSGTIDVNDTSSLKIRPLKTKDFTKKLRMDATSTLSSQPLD

[2] = biological target: T1, soluble region of S. cerevisiae Msp1 …; assay: SEC + SEC-MALS; conditions: remark: other sources report otherwise
[3] = biological target: the molecule itself; assay: SEC + SEC-MALS
[4] = biological target: the molecule itself; assay: SEC

- stoichiometry N [1]: 2
- stoichiometry N [2]: 6
B1: soluble region of S. cerevisiae Msp1 (Δ1-32), wild type, P28737 33-362 (domain or fragment)
chain: T1 chain

B2: soluble (Δ1-32) S. cerevisiae Msp1 E193Q (domain or fragment, UniProt P28737 33-362, looked up)
chain: T1 chain with E161Q
- stoichiometry N [3]: 6

B3: soluble (Δ1-32) S. cerevisiae Msp1 E193Q H206A/E207A (domain or fragment, UniProt P28737 33-362, looked up)
chain: T1 chain with E161Q, H174A, E175A
- stoichiometry N [4]: 6

B4: soluble (Δ1-32) S. cerevisiae Msp1 E193Q W166A/Y167A (domain or fragment, UniProt P28737 33-362, looked up)
chain: T1 chain with W134A, Y135A, E161Q
- stoichiometry N [4]: 6
